Measured values: patent US20190077860A1 (EISAI R AND D MANAGEMENT, published 2019)

T1: human EphA7 extracellular region-SEAP-His protein (human, UniProt Q15375 28-555)
T1 construct: extracellular domain; also called hEphA7-SEAP-His
T1 sequence (looked up): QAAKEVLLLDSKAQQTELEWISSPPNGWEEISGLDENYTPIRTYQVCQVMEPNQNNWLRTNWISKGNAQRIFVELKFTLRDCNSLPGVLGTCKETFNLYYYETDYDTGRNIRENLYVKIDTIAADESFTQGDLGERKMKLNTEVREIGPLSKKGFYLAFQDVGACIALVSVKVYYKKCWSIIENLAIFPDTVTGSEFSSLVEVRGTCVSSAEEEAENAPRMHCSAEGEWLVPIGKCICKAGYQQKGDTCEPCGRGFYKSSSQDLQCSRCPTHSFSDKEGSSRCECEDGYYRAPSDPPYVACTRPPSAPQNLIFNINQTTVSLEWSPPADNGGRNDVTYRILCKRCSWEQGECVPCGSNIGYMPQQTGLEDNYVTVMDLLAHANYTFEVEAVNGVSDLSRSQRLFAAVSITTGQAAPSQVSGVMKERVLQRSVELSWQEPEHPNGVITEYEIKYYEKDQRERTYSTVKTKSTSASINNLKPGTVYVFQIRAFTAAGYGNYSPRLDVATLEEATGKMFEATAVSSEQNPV

T2: human EphB4 extracellular region-SEAP-His protein (human, UniProt P54760 16-539)
T2 construct: extracellular domain; also called hEphB4-SEAP-His
T2 sequence (looked up): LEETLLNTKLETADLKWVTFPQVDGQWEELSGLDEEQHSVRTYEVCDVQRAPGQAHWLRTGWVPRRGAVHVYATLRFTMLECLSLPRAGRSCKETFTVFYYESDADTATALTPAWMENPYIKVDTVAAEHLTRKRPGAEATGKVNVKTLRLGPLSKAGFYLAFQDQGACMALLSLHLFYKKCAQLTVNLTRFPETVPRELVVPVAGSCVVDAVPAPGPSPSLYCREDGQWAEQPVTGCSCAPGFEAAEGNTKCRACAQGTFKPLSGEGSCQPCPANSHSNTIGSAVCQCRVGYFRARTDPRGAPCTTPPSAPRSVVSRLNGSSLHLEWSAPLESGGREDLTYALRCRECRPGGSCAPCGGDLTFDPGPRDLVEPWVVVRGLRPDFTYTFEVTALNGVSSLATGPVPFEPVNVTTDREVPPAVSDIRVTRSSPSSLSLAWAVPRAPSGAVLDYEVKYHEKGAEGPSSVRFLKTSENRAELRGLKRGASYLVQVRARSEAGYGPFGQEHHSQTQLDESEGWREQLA


Experiments:
[1] = biological target: T1, human EphA7 extracellular …; assay: ELISA
[2] = biological target: T2, human EphB4 extracellular …; assay: ELISA

A450 as % of hEphA4-SEAP-His [1] [%]	A450 as % of hEphA4-SEAP-His [2] [%]	Binder
6.3	6.5	humanized antibody No. 158 (antibody, human IgG2, human Ig kappa; also called L1-6/HA2) heavy: QVQLVQSGSELKKPGASVKVSCKASGYTFTDYSMHWVRQAPGQGLKWMGWINTETGEPTYAQGFTGRFVFSLDTSVSTAYLQISSLKAEDTAVYYCARIPLYYYGSRYWYFDVWGQGTTVTVSSASTKGPSVFPLAPSSRSTSESTAALGCLVKDYFPEPVTVSWNSGALTSGVHTFPAVLQSSGLYSLSSVVTVPSSNFGTQTYTCNVDHKPSNTKVDKTVERKSCVECPPCPAPPAAAPSVFLFPPKPKDTLMISRTPEVTCVVVDVSHEDPEVQFNWYVDGVEVHNAKTKPREEQFNSTFRVVSVLTVVHQDWLNGKEYKCKVSNKGLPAPIEKTISKTKGQPREPQVYTLPPSREEMTKNQVSLTCLVKGFYPSDIAVEWESNGQPENNYKTTPPMLDSDGSFFLYSKLTVDKSRWQQGNVFSCSVMHEALHNHYTQKSLSLSPG light: DIQMTQSPSSLSASVGDRVTITCRASENIYRNLAWYQQKPGKAPQLLLYAATNLADGVPSRFSGSGSGTDYTLTISSLQPEDFATYYCQHFWGTPWTFGQGTKVEIKRTVAAPSVFIFPPSDEQLKSGTASVVCLLNNFYPREAKVQWKVDNALQSGNSQESVTEQDSKDSTYSLSSTLTLSKADYEKHKVYACEVTHQGLSSPVTKSFNRGEC
5.5	5.4	humanized antibody No. 159 (antibody, human IgG2, human Ig kappa; also called L1-6/HK2) heavy: QVQLVQSGSELKKPGASVKVSCKASGYTFTDYSMHWVRQAPGQGLKWMGWINTETGEPTYADDFKGRFVFSLDTSVSTAYLQISSLKAEDTAVYYCARIPLYYYGSRYWYFDVWGQGTTVTVSSASTKGPSVFPLAPSSRSTSESTAALGCLVKDYFPEPVTVSWNSGALTSGVHTFPAVLQSSGLYSLSSVVTVPSSNFGTQTYTCNVDHKPSNTKVDKTVERKSCVECPPCPAPPAAAPSVFLFPPKPKDTLMISRTPEVTCVVVDVSHEDPEVQFNWYVDGVEVHNAKTKPREEQFNSTFRVVSVLTVVHQDWLNGKEYKCKVSNKGLPAPIEKTISKTKGQPREPQVYTLPPSREEMTKNQVSLTCLVKGFYPSDIAVEWESNGQPENNYKTTPPMLDSDGSFFLYSKLTVDKSRWQQGNVFSCSVMHEALHNHYTQKSLSLSPG light: DIQMTQSPSSLSASVGDRVTITCRASENIYRNLAWYQQKPGKAPQLLLYAATNLADGVPSRFSGSGSGTDYTLTISSLQPEDFATYYCQHFWGTPWTFGQGTKVEIKRTVAAPSVFIFPPSDEQLKSGTASVVCLLNNFYPREAKVQWKVDNALQSGNSQESVTEQDSKDSTYSLSSTLTLSKADYEKHKVYACEVTHQGLSSPVTKSFNRGEC
6.1	6.3	humanized antibody No. 160 (antibody, human IgG2, human Ig kappa; also called L1-6/HK4) heavy: QIQLVQSGSELKKPGASVKVSCKASGYTFTDYSMHWVRQAPGQGLKWMGWINTETGEPTYADDFKGRFVFSLDTSVSTAYLQISSLKAEDTAVYYCARIPLYYYGSRYWYFDVWGQGTTVTVSSASTKGPSVFPLAPSSRSTSESTAALGCLVKDYFPEPVTVSWNSGALTSGVHTFPAVLQSSGLYSLSSVVTVPSSNFGTQTYTCNVDHKPSNTKVDKTVERKSCVECPPCPAPPAAAPSVFLFPPKPKDTLMISRTPEVTCVVVDVSHEDPEVQFNWYVDGVEVHNAKTKPREEQFNSTFRVVSVLTVVHQDWLNGKEYKCKVSNKGLPAPIEKTISKTKGQPREPQVYTLPPSREEMTKNQVSLTCLVKGFYPSDIAVEWESNGQPENNYKTTPPMLDSDGSFFLYSKLTVDKSRWQQGNVFSCSVMHEALHNHYTQKSLSLSPG light: DIQMTQSPSSLSASVGDRVTITCRASENIYRNLAWYQQKPGKAPQLLLYAATNLADGVPSRFSGSGSGTDYTLTISSLQPEDFATYYCQHFWGTPWTFGQGTKVEIKRTVAAPSVFIFPPSDEQLKSGTASVVCLLNNFYPREAKVQWKVDNALQSGNSQESVTEQDSKDSTYSLSSTLTLSKADYEKHKVYACEVTHQGLSSPVTKSFNRGEC

The remaining lines, values behind:

Binder	A450 as % of hEphA4-SEAP-His [1] [%]	A450 as % of hEphA4-SEAP-His [2] [%]
humanized antibody No. 134 (antibody, human IgG2, human Ig kappa; also called L2-4/HA2) heavy: QVQLVQSGSELKKPGASVKVSCKASGYTFTDYSMHWVRQAPGQGLKWMGWINTETGEPTYAQGFTGRFVFSLDTSVSTAYLQISSLKAEDTAVYYCARIPLYYYGSRYWYFDVWGQGTTVTVSSASTKGPSVFPLAPSSRSTSESTAALGCLVKDYFPEPVTVSWNSGALTSGVHTFPAVLQSSGLYSLSSVVTVPSSNFGTQTYTCNVDHKPSNTKVDKTVERKSCVECPPCPAPPAAAPSVFLFPPKPKDTLMISRTPEVTCVVVDVSHEDPEVQFNWYVDGVEVHNAKTKPREEQFNSTFRVVSVLTVVHQDWLNGKEYKCKVSNKGLPAPIEKTISKTKGQPREPQVYTLPPSREEMTKNQVSLTCLVKGFYPSDIAVEWESNGQPENNYKTTPPMLDSDGSFFLYSKLTVDKSRWQQGNVFSCSVMHEALHNHYTQKSLSLSPG light: EIVMTQSPATLSVSPGERATLSCRASENIYRNLAWYQQKPGQSPRLLIYAATNLADGIPARFSGSGSGTEYTLTISSLQSEDFAVYYCQHFWGTPWTFGQGTKVEIKRTVAAPSVFIFPPSDEQLKSGTASVVCLLNNFYPREAKVQWKVDNALQSGNSQESVTEQDSKDSTYSLSSTLTLSKADYEKHKVYACEVTHQGLSSPVTKSFNRGEC	5.1	5.1
humanized antibody No. 133 (antibody, human IgG2, human Ig kappa; also called L2-4/HA1) heavy: QVQLVQSGSELKKPGASVKVSCKASGYTFTDYSMHWVRQAPGQGLEWMGWINTETGEPTYAQGFTGRFVFSLDTSVSTAYLQISSLKAEDTAVYYCARIPLYYYGSRYWYFDVWGQGTTVTVSSASTKGPSVFPLAPSSRSTSESTAALGCLVKDYFPEPVTVSWNSGALTSGVHTFPAVLQSSGLYSLSSVVTVPSSNFGTQTYTCNVDHKPSNTKVDKTVERKSCVECPPCPAPPAAAPSVFLFPPKPKDTLMISRTPEVTCVVVDVSHEDPEVQFNWYVDGVEVHNAKTKPREEQFNSTFRVVSVLTVVHQDWLNGKEYKCKVSNKGLPAPIEKTISKTKGQPREPQVYTLPPSREEMTKNQVSLTCLVKGFYPSDIAVEWESNGQPENNYKTTPPMLDSDGSFFLYSKLTVDKSRWQQGNVFSCSVMHEALHNHYTQKSLSLSPG light: EIVMTQSPATLSVSPGERATLSCRASENIYRNLAWYQQKPGQSPRLLIYAATNLADGIPARFSGSGSGTEYTLTISSLQSEDFAVYYCQHFWGTPWTFGQGTKVEIKRTVAAPSVFIFPPSDEQLKSGTASVVCLLNNFYPREAKVQWKVDNALQSGNSQESVTEQDSKDSTYSLSSTLTLSKADYEKHKVYACEVTHQGLSSPVTKSFNRGEC	4.6	4.9
humanized antibody No. 135 (antibody, human IgG2, human Ig kappa; also called L2-4/HK1) heavy: QVQLVQSGSELKKPGASVKVSCKASGYTFTDYSMHWVRQAPGQGLEWMGWINTETGEPTYADDFKGRFVFSLDTSVSTAYLQISSLKAEDTAVYYCARIPLYYYGSRYWYFDVWGQGTTVTVSSASTKGPSVFPLAPSSRSTSESTAALGCLVKDYFPEPVTVSWNSGALTSGVHTFPAVLQSSGLYSLSSVVTVPSSNFGTQTYTCNVDHKPSNTKVDKTVERKSCVECPPCPAPPAAAPSVFLFPPKPKDTLMISRTPEVTCVVVDVSHEDPEVQFNWYVDGVEVHNAKTKPREEQFNSTFRVVSVLTVVHQDWLNGKEYKCKVSNKGLPAPIEKTISKTKGQPREPQVYTLPPSREEMTKNQVSLTCLVKGFYPSDIAVEWESNGQPENNYKTTPPMLDSDGSFFLYSKLTVDKSRWQQGNVFSCSVMHEALHNHYTQKSLSLSPG light: EIVMTQSPATLSVSPGERATLSCRASENIYRNLAWYQQKPGQSPRLLIYAATNLADGIPARFSGSGSGTEYTLTISSLQSEDFAVYYCQHFWGTPWTFGQGTKVEIKRTVAAPSVFIFPPSDEQLKSGTASVVCLLNNFYPREAKVQWKVDNALQSGNSQESVTEQDSKDSTYSLSSTLTLSKADYEKHKVYACEVTHQGLSSPVTKSFNRGEC	5.2	5.1
humanized antibody No. 132 (antibody, human IgG2, human Ig kappa; also called L2-4/HA4) heavy: QIQLVQSGSELKKPGASVKVSCKASGYTFTDYSMHWVRQAPGQGLKWMGWINTETGEPTYAQGFTGRFVFSLDTSVSTAYLQISSLKAEDTAVYYCARIPLYYYGSRYWYFDVWGQGTTVTVSSASTKGPSVFPLAPSSRSTSESTAALGCLVKDYFPEPVTVSWNSGALTSGVHTFPAVLQSSGLYSLSSVVTVPSSNFGTQTYTCNVDHKPSNTKVDKTVERKSCVECPPCPAPPAAAPSVFLFPPKPKDTLMISRTPEVTCVVVDVSHEDPEVQFNWYVDGVEVHNAKTKPREEQFNSTFRVVSVLTVVHQDWLNGKEYKCKVSNKGLPAPIEKTISKTKGQPREPQVYTLPPSREEMTKNQVSLTCLVKGFYPSDIAVEWESNGQPENNYKTTPPMLDSDGSFFLYSKLTVDKSRWQQGNVFSCSVMHEALHNHYTQKSLSLSPG light: EIVMTQSPATLSVSPGERATLSCRASENIYRNLAWYQQKPGQSPRLLIYAATNLADGIPARFSGSGSGTEYTLTISSLQSEDFAVYYCQHFWGTPWTFGQGTKVEIKRTVAAPSVFIFPPSDEQLKSGTASVVCLLNNFYPREAKVQWKVDNALQSGNSQESVTEQDSKDSTYSLSSTLTLSKADYEKHKVYACEVTHQGLSSPVTKSFNRGEC	4.5	4.8
